Laboratory results as given in the DeepSol protein solubility set.

Experiment: soluble on expression in E. coli; label from the status in PepcDB or PDB records

Soluble on expression in E. coli, not soluble:
MGSDKIHHHHHHMSDVKGKNMTKKKPVLKRFNYRLNKLHVKNLKGIKDFTLNFEKDKLVTGIVGINGSGKSTLIHALACAFKPIGKATSKDFNRLSHFFTPNKDASWEGSEFEIEFEFDELTIKPNSEPTKKLINHTEVYSKKQGKKVSRWLPIYGRRHERESAYIGLHDLATLSEDKNAGRYKEYETEDLAHEASDKIKEDLVYILGRNYNRLTTCLVKQKDKVHTLFGLVFNGVEYSEHSMGAGEKRLLTILSALHNPKLAKGGLLLIDEIDVLLHGMAFKRLIERIIKRANENKIEVIFSTHRETIIDFKNDLLIYGVLNTGKGVIPMPHTHPQVMQQLTGVRTVPIEIYVEDDLATSVIETLLYQKHATHYVNITKFGTWSNAFAILAGKILMDSDISETLCVLDGDVCNTIEERTSECQRHLNGDDKNEHRQSMLNHIVEFKLANIAPQGSGGSPEYNIKIMFESIESDDPRVVELQRYSREMQGLEDWHVYFDILAETSGIRTARDKVLEAISETGQWNDYIVEISNWLDEKLKIYLPVRVQEEENLVTV
MSKNLTITHESTFNGNKVYIDKEGLVVEYLEGIESVLENALEQYARLFIVRVDLNLPTDFRGDDSAVMTRFFRSLKSQVAAYRRRSARLNRKPYRETTIRYVWAKECDTSTSSHYHVALIFDRNIFRSLGDFGEYQQSLANRIRNAWKRSVEAMYSGKEKPAIHFSKQGQYHLLRNSEEFGEVFQSVFYRLSYLAKRRTKHFGKRMNNFGHSHK
MISICLVNTYDKLKKHEIHLRSIARAAPLCYAFNFHLALLDFPFWRSEKEVAEEVANYTTIGEGGKYLLYLAESGKLHLIDKIPAHFGEVVATTSKPDPDKVVNPDTLAAFKSATFLIGLGRRGLPREMLKSAKYHLDVTRKGVSLETCSAIGAIAMLLAVKVVG
MAQSKPAYKVADIKLADFGRKEIILAENEMPGLMAMRSKYGPSQPLKGARIAGCLHMTIQTAVLIETLTALGAEVQWSSCNIFSTQDHAAAAIAQTGVPVYAWKGETDEEYEWCIEQTIVFKDGQPLNMILDDGGDLTNLVHAKYPQYLAGIRGLSEETTTGVHNLAKMLAKGDLKVPAINVNDSVTKSKFDNLYGIRESLPDGIKRATDVMLAGKVAVVAGYGDVGKGSAASLKAFGSRVIVTEIDPINALQAAMEGYEVTTLEEAAPKANIIVTTTGCKDIVTGKHFELLPNDAIVCNVGHFDCEIDVKWLNTNATKKDTIKPQVDRYTLKNGRHVILLAEGRLVNLGCATGHPSFVMSNSFTNQVLAQVELWTKFGTPQEYKLGLYVLPKTLDEEVAYLHLAQLGVKLTKLSDEQASYLGVPVAGPYKPDHYRY
MKLSTSLEMPFRESTDPICSVCNFSSLIAPHFGGLVCSACASFFRRTVALNIHYLCKKDNQCKGMRKNCRACRFESCVKIAGMKRSLVKERKNLNNIPLYILNRRNETGNQGVVRAFVSSNQNRLENRLSLSPLTELPINDEMDVSKILKTTPSSLLKYYVEQVSHGKQFYMNTLNIRTKEELFEIVSYQSKVAAETCRTCPGVDLLDNRDILILRKYFQFSNIWIESTWKYWFSNDFSNDTEKFDIKLMEFIGQVKSTLLISLSRLKFNIFEFTAFKAICIWKLVYHETSRAMKIVAQEHYEGVTKALISYYQTYTLLDSMEIAIRVGEITLLVSSVFQMYHDMAKLYLHMGLPF
MGSDKIHHHHHHAQKKDFSYKFYGQIRTDLYYNSRANEETVDGLFYMYPKDEVFDSNGRDLNATANGSFYTLYTRLGLDVKGPKLGRAMTSAKVEADFRGSGTSYSTIRLRHAYLNLDWGRSALLLGQTWHPLFGDVSPQILNLSVGAPFQPFSRAPQIRYRYTHKGFQLTGAAIWQSQYLSQGIVGKSQTYIKNSCVPEFYLGLDYKANGWIAGAGIELLSLKPRTESKVEDQVYKVNERITTLSYEGHVKYSNKDWFVGAKTVLGSNLTQTSMLGGFGIKSIDNRTGEQKYTPIRVSSSWLNVVYGQKWKPGIFLGYVKNMGTSDALASNQVYGTGTNVDQVVTAGAELTYNVNHWKFGVEYTYTSAAYGSLYLKNGKIIDTHSVGNNRIVGVAMFMF
MGSDKIHHHHHHMAADHVHCASCGQPLTGSYYVLINRPERFCPQCIATRPRCSTCGAPLGNHFWKLHDGRQQCDACHAVAIYDPVQAQHLFQQTAGMLAEGMGLRLHVGVAFRLVDAPTMARLRGPTPPGQDTLGLYRRQNHVRVIYLLYGLPTLIFRITAAHEYAHAWQAEHCPLLRNEFLREGHAEWVAYQHLLQLGSHKAAARMLDENHPYHEPLRYLLQLEAQLGIEGVNRYMMRVDIE
MGITSAGMQSRDAECGERIFTRTVRQVKQQTTVHYFVSPPRPPVKTNPQAKTLISTRLEVATRKKRRVLFILEHHHHHH
LVTKEVEYEDGDTVCKGFIAYHSSASKPLPCVMVAHDWGGRGEGACNKARQLAGMGYIGFAIDMYGNAKLGKDKAEKRALMTPFRENRGKLITRINAAFNKVVQLPEVDSEKVAAIGYCFGGLCVLDLIRSGAPLKGVVSFHGVLLPLEGESNKSLNAKVLILHGYDDPLVPIEQVNQFAIEMTERKVDWQVHVYGQTAHSFTDPGANDDEMGLHYNKLADQRSWQSTQLFLQELF
MKKEEAKDIPIGGEIAVRQTGVPYGWLYRRTEPGYLLANGIALLECERDSAGRYKGGAGLDGMYLQTGRLYVPVLAGDGNVRAFQEVIPENYLAAAEMSVEGNYNQIDGIINNEPPKPSVLDALNQCREDAAKGRDAPENPPRGQEVER
MAQENPLWMRHCAISPDGTTIAFTYKGDIFTVPVSGGKATQITTNPAFDTTPIWSPDSKQIAFASDRMGSMDVFIVSKDGGEPRRLTTFSGGETPVAFTDAGHILFTADIMPSTEDAGFPSNGQFQQIYQIPVSGGRPVMFSSMPMECISINKEGTILYQDKKGYEDYWRKHQKSPIARDIWMLRPGQTPRYEKQTTFIGEDREPVWAPDGKSFYYLSEENGTFNVYQRTPGSDTSKQVTHHKQHPVRFLEHHHHHH
MVKDLLEERARELGLLFAWAPLDLPQEAEARHRAWLEAGRHGGMAYLEAPERFHPRKRFPWAKSALLLFAPYAYPDPGTPPGGLRVGRVARYAWTRDYHLVLGEALKALEETARGLGLKAKGYVDHGPLPERTLAALSGAGWIGKSGYFLSQAFGVHAFIGVLLTPLEVEAAPLHPSRCGRCARCLSACPTEALLGDGTLDARACVSYLTIEHKGPIPPSLWPGIGDWLFGCDLCGEACPWERFGKVWKALRPEPELAHPDLLDFFRLSGRAFGRKYAGTAFLRAGRARMARNALIVLFNLGLGEALFLEATRDPNPLVRRTALRALHLMGKPLDPFLQDPGLREEALALLGEAPEAVHLLQDGREAPGPEVKEQGA
MGSDKIHHHHHHMTKFIVDSSYWNLFPTSKIGVILIKDYHMDRNLETELKQLLSDSHSLAKKYLQEKEFSQNRVIQTYRKAYQTFKTKKGARSSIEALLKRVNSGNEITSINPLVDIYNAASLRFGLPIGAEDSDTFRGDLKLTITNGGDEFYLIGEDFNRPTLSGELAYVDDVGAVCRCFNWRDGKRTMITDNTQNAFLVIELIDNGREIIFKEALDFIATNTNRFLKAKTQTIILDKEHSEITL
ELISRYPERYCRASSGRCTFAFHPAPEKSFNRGFTNLLLSGKRDTNTLITPESNKSKGAYIGCVTAVNRDKVSIRLRPDNTGAKPSLANGDGLYLLHPDGNMSGTRINVVLPDGSIQVDNPAGIVSGTNVFRNYDIRFEKALSQDNSAVRLIPVSLTLTDVPDGFSLSIEADCYPSAKATITAAHEPATRFDEEQIRKNLTKLGGTPLEAVSVDIRLSHDYFIPLSLIGRLRRDAVQSFIEKASSMPEREEKPVVQRRISPAASSLQEGEQSLSFLANVANKEAETFYRQMGYTSIAPAFEHSHPQGVPLMFSKHCLRYHLGYCPTLQHKESPYREPYYLIHGETRLRLRFDCQHCQMLVYHDSEGIKQT
MSNRFKFFAAIREYNPEGEVFLRIIGTGSNNNLTYRIMESRLNEVGISLGSFLSAVVPMGEPIRDFVPEERNFKVIIDGIVAMVENIEGNLEKNEEGVLVFSTEDFGLVRALDQKLSPGQYQITVRATKFSERKIFKNMNYCAEAQKIAPLVTATESESIFKRVASFFQKSPEENSLESTSKQANEEKDSSVQDLSMAELIEILPNLDQKSINQPTPAPRSMVGSVGITRTMNALVCDVIHQEKECIHFLWICEIQQISMFASKSHYLSPGKFFEGLFEKKETNWECIRFVGEKKELLKGITDGDKFKVTLTNEQGFPVFTVENLYAKLIAFEGKFVFHNKTFGNAIIGCYRPPGDYKITIKLLPIPFTTPTGKFICFEAIHFESADVLSSSNTNTTENKKKVTEKVKERGIRRPQDPKSKGIQRAVVIRVIEKGNSTDYIVWNLDSKMECIFRSAKHELERGHFFSGKFVKKSDGSLMCTNYVKQIKGFVEGGLDEHENIYFTVPIQNFQAARGNRKYNCAFSEYFGEVLEGKAENTKLSSNCNGKTVNIEWKKIGASGSDEYVWIVSKIF
MGSDKIHHHHHHMEFNDQRVRYFFEAARLGGVRAAADRMDIAASAVSRQIRQLEMELGATLFERHRRGFQPTEAGRLLLDYHRKQLSEQEAVLTALRELKGIHRGHVSVVTGGGVISDLIDAIHPFSQRYPQITVGIDIRGTNDIVRAVLEDRAHIGVVFYTAPNPLLRVHRSSIQPLYAVAAPDHPLARAERPIRLEELARHKLALPDVSFGVRQILRDAEKAEQCQLEPAIVTNSFRVMVEYALTGQAATVQPRFSVRRELESGQLQAIPIQQRNLQQAEVHLITHHGRRLSPAAARLLETLAASMPAFRDSAVTP

Soluble on expression in E. coli, soluble:
MNNKKINFGCCNWTRDAMKWRQRFEAADVTWVSRTNNGPADLLAKHRLPDNCSFQYHYYVPPFIVSALHCNHS
MAHHHHHHMRSLPNIIVTGVPGVGKTTLCEELVEVINKELQEGQQAEPANQMKHLNLSKVIKEERLYEEFDDQLDATIYSNDMVNEKMEKLKLENGGYIIDFHDVDFLEQKELIDHIFLLTTSTNKLYERLEKRNYAKEKIKNNIECEIFQVIKEDILTFYNDPSIFDELGNNDMEQYESNLQLIKGWVLSWAKSGEALPR
MRVENSNGQSQPAATSKTVKDNAEIYYDNDDSDRFYFHVWGGEDIHVGLYKEPVDQDEIREASLRTDEWLASELAMTGVLQRQAKGLDLGAGYGGAARFLVRKFGVSIDCLNIAPVQNKRNEEYNSQAGLADNITVKYGSFLEIPCEDNSYDFIWSQDAFLHSPDKLKVFQECARVLKPGGVMAITDPMKEDGIDKSSIQPILDRIKLHDMGSLGLYRSLAKECGLVTLRTFSRPDSLVHHYSKVKAELIKRSSEIASFCSPEFQANMKRGLEHWIEGGRAGKLTWGGMLFRKSDKI
MRISAKGRYALAAVISMAQQYNNGEYITVISISEKLGISKIFLEQVFSSLKKAKIVSSTKGVQGGYQLTRTPSQITVLDVLLSVEVSLFEQTQETVSDKAPDIEQALRSSVFDVLDKNIKQTLSTITIADLVAEAEKHKDYNALMFYI
GAMGMESLFPNKGEIIRELLKDPLILKNDSKRSNGSELELDSSDLLQREAILANELNILDNLKTFLNLIKEVKTNLNILELENCYYSLQSLRKKMRNNAAYLKQSFNFQQSISTYVDTLHLELVSTLYKILTNGFWKITENSIQFTPTVEWGKDKVHIEYDTFMDFVAQQYFPKGSLDNQAWFILDMTSADSQEQVRAKLNTIMKEYMNLSRIVSMIKNSIFISGKEISYENEKNILVFSKSSSHGQHCVSTVLTSFEAVCDFMLDGLAFRDRKTLSYELGPLFNTEFTKFVKNNASIILESLDSPLKNLVSVINNKLTRLVAKSEVTNWTHSGKEIQDLLMNKQLYYNLLLDKVLESHISEIRS
